Data from paper PMC8530227.

Target: Get3^BDP•TA targeting complex (Get3 dimer with the model tail-anchored substrate 3xStrep-SUMOnc-Bos1-opsin) (yeast | not stated) (UniProt Q12154)
Test: FRET or BRET

Chain of Get3^BDP•TA targeting complex (Get3 dimer with the model tail-anchored substrate 3xStrep-SUMOnc-Bos1-opsin) (yeast | not stated) (Q12154 whole entry, chain 1 of 2): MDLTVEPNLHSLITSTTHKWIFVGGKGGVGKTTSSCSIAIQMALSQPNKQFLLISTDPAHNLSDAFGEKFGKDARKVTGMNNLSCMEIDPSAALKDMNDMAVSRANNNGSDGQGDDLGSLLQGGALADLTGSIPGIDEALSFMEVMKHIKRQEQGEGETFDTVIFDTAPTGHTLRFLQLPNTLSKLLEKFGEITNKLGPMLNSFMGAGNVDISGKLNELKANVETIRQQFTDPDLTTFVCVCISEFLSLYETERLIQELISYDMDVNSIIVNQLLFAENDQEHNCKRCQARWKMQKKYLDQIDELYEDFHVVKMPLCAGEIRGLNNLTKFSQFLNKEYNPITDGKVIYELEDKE
Chain of Get3^BDP•TA targeting complex (Get3 dimer with the model tail-anchored substrate 3xStrep-SUMOnc-Bos1-opsin) (yeast | not stated) (P25385 203-244, chain 2 of 2, further chain): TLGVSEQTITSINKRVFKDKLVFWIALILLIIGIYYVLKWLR

Kd [nM]	reduction in donor fluorescence (FRET) [%]	Substance
7.1		mini-Get1(NR)/2^TMR (from UniProt P53192 20-102; P40056 1-150) (complex)
	50	mini-Get1/2^TMR (mini-Get1/2 labeled with TMR on Get2CD) (from UniProt P53192 20-102; P40056 1-150) (complex)
	50	mini-Get1^TMR/2 (mini-Get1/2 labeled with TMR on Get1CD) (from UniProt P53192 20-102; P40056 1-150) (complex)
